From patent US20070203071A1 (published 2007)
Non-standard residues stand in square brackets, D forms with d. No end group written: not given here. Bpa = N[C@@H](Cc1ccc(C(=O)c2ccccc2)cc1)C(=O)O; hArg = N=C(N)NCCCC[C@H](N)C(=O)O; Ac5c = NC1(C(=O)O)CCCC1; Deg = CCC(N)(CC)C(=O)O; desNH2 = X is (desNH2); Aib = CC(C)(N)C(=O)O

B1: parent (peptide)
peptide: [Ac5c]V[Aib]EIQLMHQ[hArg]AKW-NH2
modifications: N-terminus assumed
SMILES: CC[C@H](C)[C@H](NC(=O)[C@H](CCC(=O)O)NC(=O)C(C)(C)NC(=O)[C@@H](NC(=O)C1(N)CCCC1)C(C)C)C(=O)N[C@@H](CCC(N)=O)C(=O)N[C@@H](CC(C)C)C(=O)N[C@@H](CCSC)C(=O)N[C@@H](Cc1c[nH]cn1)C(=O)N[C@@H](CCC(N)=O)C(=O)N[C@@H](CCCCNC(=N)N)C(=O)N[C@@H](C)C(=O)N[C@@H](CCCCN)C(=O)N[C@@H](Cc1c[nH]c2ccccc12)C(N)=O
B2: Deg1,3 (peptide)
peptide: [Deg]V[Deg]EIQLMHQ[hArg]AKW-NH2
modifications: N-terminus assumed
SMILES: CC[C@H](C)[C@H](NC(=O)[C@H](CCC(=O)O)NC(=O)C(CC)(CC)NC(=O)[C@@H](NC(=O)C(N)(CC)CC)C(C)C)C(=O)N[C@@H](CCC(N)=O)C(=O)N[C@@H](CC(C)C)C(=O)N[C@@H](CCSC)C(=O)N[C@@H](Cc1c[nH]cn1)C(=O)N[C@@H](CCC(N)=O)C(=O)N[C@@H](CCCCNC(=N)N)C(=O)N[C@@H](C)C(=O)N[C@@H](CCCCN)C(=O)N[C@@H](Cc1c[nH]c2ccccc12)C(N)=O
B3: Deg1,3,Bpa2 (peptide)
peptide: [Deg][Bpa][Deg]EIQLMHQ[hArg]AKW-NH2
modifications: N-terminus assumed
SMILES: CC[C@H](C)[C@H](NC(=O)[C@H](CCC(=O)O)NC(=O)C(CC)(CC)NC(=O)[C@H](Cc1ccc(C(=O)c2ccccc2)cc1)NC(=O)C(N)(CC)CC)C(=O)N[C@@H](CCC(N)=O)C(=O)N[C@@H](CC(C)C)C(=O)N[C@@H](CCSC)C(=O)N[C@@H](Cc1c[nH]cn1)C(=O)N[C@@H](CCC(N)=O)C(=O)N[C@@H](CCCCNC(=N)N)C(=O)N[C@@H](C)C(=O)N[C@@H](CCCCN)C(=O)N[C@@H](Cc1c[nH]c2ccccc12)C(N)=O

target: -; test: competition binding, 125I-PTH(1-15) tracer, HKRK-B28 cells

**Q.** How did the IC50 turn out when B1 was run?
**A.** The IC50 was 30 nM.

**Q.** How did the IC50 turn out when B2 was run?
**A.** The IC50 was 230 nM.

**Q.** Which IC50 does the source give for desNH2-[Ac5c]V[Aib]EIQLMHQ[hArg]AKW-NH2 [desNH2-AC5C1] here?
**A.** Its IC50 is 1800 nM.

**Q.** B3 was tested. Which IC50 did it give?
**A.** The IC50 was 840 nM.
